The target of assay [1] is T1, human interleukin-3 (IL-3) receptor alpha-chain (CD123), on cells (human, UniProt P26951 19-378).
T1 construct: whole, on cells; also called human CD123
As to the kind of experiment: flow cytometry (PE-Cy7-A), mAb + labeled secondary antibody, RS4;11 cells transduced with human CD123.

Assay [2] deals with T1, human interleukin-3 (IL-3) receptor …. In words: flow cytometry (PE-A), 2 µg/mL by the legend (hybridoma supernatants by paragraph 203) + labeled secondary antibody, parental MOLM-13 cells against MOLM-13 CD123KO.
The target is the same in assay [3]. In words: flow cytometry (APC-A), mAb reacted with 5, 10 or 15 equivalents of B10 + secondary antibody, RS4;11 cells overexpressing human CD123 [CONT.]. An excerpt: (§1) FIG. 4. Parental CD123-negative human RS4;11 ALL cells and RS4;11 cells engineered to overexpress human CD123 were used for flow cytometric phenotyping of a series of anti-CD123 mAbs (11F11, 5G4, 10C4, 1H8) that were either left unmodified or were reacted with 5, 10, or 15 equivalents of B10. A secondary mAb-only control is also shown.

For assay [4] the target is unchanged. As to the kind of experiment: flow cytometry (APC-A), unmodified mAb + secondary antibody, RS4;11 cells overexpressing human CD123 [CONT.].
Excerpt: as §1

The target in assay [5] is T2, Hs_CD123_6His-Avi (CD123 ECD-His-Avi fusion protein) (human, UniProt P26951 19-303).
T2 construct: The signal peptide is marked only by bold type, so its limits cannot be read here and were not guessed; also called His-Avi tagged peptide encompassing the ECD of human CD123
T2 sequence: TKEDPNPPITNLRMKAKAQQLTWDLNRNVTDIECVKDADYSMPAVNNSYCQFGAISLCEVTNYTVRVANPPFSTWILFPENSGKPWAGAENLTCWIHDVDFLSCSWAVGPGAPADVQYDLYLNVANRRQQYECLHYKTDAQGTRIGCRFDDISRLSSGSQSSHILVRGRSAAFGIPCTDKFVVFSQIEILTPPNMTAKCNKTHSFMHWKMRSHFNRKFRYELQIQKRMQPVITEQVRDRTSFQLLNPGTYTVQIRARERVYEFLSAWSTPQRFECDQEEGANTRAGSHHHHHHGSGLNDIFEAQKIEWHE
As to the kind of experiment: SPR (Biacore T-100), univalent affinity; antibody captured on the CM4 chip, human CD123 ECD as analyte. As to the method:
FIGS. 21A-21B. Surface plasmon resonance (Biacore T-100) analyses were performed to rigorously/precisely determine univalent binding affinities of recombinant, fully human versions of the anti-human CD123 monoclonal antibodies 1B5, 1D9, and 1E3, using human IgG1 (FIG. 21A) and human IgG4 frameworks (FIG. 21B). For these experiments, a peptide encoding the complete extracellular portion of human CD123 was used, and the antibodies were captured on the biosensor chip (CM4) via a Fc gamma-specific goat anti-human IgG and amine coupling.

B1: 123-13E1 (murine anti-CD123 antibody, IgG2b isotype, Kappa Light Chain) (antibody, V domains shown)
VH: EVQLQQSGPELVKPGASVKISCKASGYTFTDHYMNWVKQSHGERLEWIGDIIPNNGGSTYSQKFKGKATLTVDKSSSTAYMELRSLTSEDSAVYYCARNGYYWYFDVWGTGTTVTVSS
VL: DIVLTQSPSSLAMSVGQKVTMSCKSSQSLLNSSNQKNYLAWYQQKPGQSPKLLVYFASTRESGVPDRFTGSGSGTDFTLTISTVQAEDLAFYYCHQHYSIPRTFGGGTKLEIT
notes: murine IgG2b, kappa
Consider B1, for which the binding result in assay [1] is listed as “binds”.

B2: 123-ATX1B7 (Human anti-CD123 antibody from ATX-GX mouse, Kappa Light Chain) (antibody, V domains shown)
VH: QVQLVQSGAEVKKPGASVKVSCKASGYTFTSFGLTWVRQAPGQGLEWMGWFNAYSGKTYYAPTLQDRVTMTTDPSTSTAYMELMSLTSDDTAIYYCARDLVFDYWGQGTLVTVSS
VL: EIVLTQSPGTLSLSPGERATLSCRASQSFSDRYLAWYQQKPGQAPRLLIYGTSSRATGIPDRFSGSGSGTDFTLTISRLESEDSAVYYCQQYGRSPFTFGPGTKVDIK
On to B2, for which the binding result in assay [2] is listed as “binds”.

B3: 123-ATX1E5 (Human anti-CD123 antibody from ATX-GX mouse, Kappa Light Chain) (antibody, V domains shown)
VH: QVQLVQSGAEVKKPGASVKVSCKASGYTFTSFGISWVRQAPGQGLEWMGWFNAYSGNTYYAPTLQDRVTMTTDTSTSTAYMELMSLRSDDTAIYYCARDLVFDYWGQGTLVTVSS
VL: EIVLTQSPGTLSLSPGERATLSCRASQSFSDRYLAWYQQKPGQAPRLLIYGTFSRATGIPDRFSGSGSGTDFTLTISRLDSEDFAVYYCQQYGSSPFTFGPGTKVDIK
For the molecule B3, in assay [2], the binding result was “binds”.

B4: 123-ATX1F2 (Human anti-CD123 antibody from ATX-GX mouse, Kappa Light Chain) (antibody, V domains shown)
VH: QVQLVQSGAEVKKPGASVKVSCKVSGYTLTEFSMHWVRQAPGKGLEWMGVFDPEHGATIYAQKFQGRVTMTEDTSTDTAYMDLSYLRSEDTAVYYCATYFDFWSGYSHFDFWGQGTLVTVSS
VL: DIQMTQSPSSLSASVGDRVTITCRASQGIRNDLGWYQQRPGKAPKRLIYAASSLQSGVPSRFSGSGSGTEFTLAISSLQPEDFATYSCLQHNSYPWTFGQGTKVEIK
B4: the binding result in assay [2] is reported as “binds”.

B5: 11F11 reacted with B10 (antibody, V domains shown)
VH: EVTLVESGGGLEQPGGSLSLSCAASGFTFTDYYMSWVRQPPGKALEWLALIRNKANGYTTEYSASVKGRFTISRDNSQSILYLQMNALRAEDSATYYCARQVRNYYGYEEDALDYWGQGTSVTVSS
VL: DIVLTQSPASLAVSLGQRATISCRASESLDFYGNSFMHWYQQKSGQPPKLLISRASNLESGIPPRFSGSGSRTDFTLTIDPVEADDVATYYCQQSYEDPYTFGGGTKLEIK
modifications: B10 on lysine amines, positions not given; B10 (isothiocyantophenethyl-ureido-closo-decaborate(2-)) on lysine amines, positions not given
notes: also called B10-conjugated 11F11
For the molecule B5, the binding result in assay [3] was “binds”.

B6: 10C4-B10 (B10-conjugated 10C4 anti-CD123 mAb) (antibody, V domains shown)
VH: QVQLKESGPGLVAPSQNLSITCTVSGFSLTTYDINWIRQPPGKGLEWLGVIWTGGGTNYNSAFMSRLSISKDNSKSQVFLKMNSLQTDDTAMYYCVRGDTYHYALDFWGQGTSVTVSS
VL: DIVMSQSPSSLAVSAGEKVTMSCKSSQSLLSSGTRKNYLAWYQQKPGQSPKLLIYWASTRESGVPDRFTGSGSGTDFTLTISSVQAEDLAVYYCKQSYILFTFGSGTKLEIK
modifications: B10 on lysine amines, positions not given; B10 (isothiocyantophenethyl-ureido-closo-decaborate(2-)) on lysine amines, positions not given
With B6, in assay [3], the binding result is on record as “binds”.

B7: 123-12A10 (murine anti-CD123 antibody, IgG2b isotype, Kappa Light Chain) (antibody, V domains shown)
VH: EVQLQQSGPELVKPGASVKISCKTSGYTFTDYYMNWVKQSHGKSLEWIGDIIPNNGGTSYHQKFKGKATLTVDKSSNTAYMELRSLTSEDSAVYYCARYGSSWFFDVWGTGTTVTVSS
VL: DIVMSQSPSSLAVSVGEKVTMSCKSSQSLLHSSNQKNYLAWYQQKPGQSPKLLIYWASTRESGVPDRFTGSGSGTDFTLTISSVKAEDLAVYYCQQYYSFPRTFGGGTKLEIK
notes: murine IgG2b, kappa
B7: the binding result in assay [1] is listed as “binds”.

B8: 123-5C7 (murine anti-CD123 antibody, IgG2b isotype, Kappa Light Chain) (antibody, V domains shown)
VH: DVQLQESGPGLVKPSQSLSLTCSVTGYSITSSYYWNWIRQFPGNKLEWMGYISYDGSNNYNPSLKNRISITRDTSKTQFFLNLNSVTTEDTATYYCARGDGYYFDYWGQGTTLTVSS
VL: DFVMSQSPSSLAVSVGEKITINCKSSQSLFFGSTQKNYLAWYQQKPGQSPKLLIFWSSTRESGVPDRFTGSGSGTDFTLSINSVKAEDLAVYYCQQYYNYPWTFGGGTKLEIK
notes: murine IgG2b, kappa
B8: the binding result in assay [1] is recorded as “binds”.

B9: 123-5G4 (murine anti-CD123 antibody, IgG2a isotype, Kappa Light Chain) (antibody, V domains shown)
VH: DVQLQESGPGLVKPSQSLSLTCTVTGYSITSDYVWNWIRQFPGNKLEWMAYISYSGTTSYNPSLSSRISITRDTSSNQFFLQLNSVTSEDTATYYCARGLDYWGQGTSVTVSS
VL: QIVLTQSPAIMSVSLGERVTMTCTASSSVTSSYFHWYQQKPGSSPKLWIYSTSNLASGVPARFSGSGSGTSYSLTISSMEAEDAATYYCHQYHRSPRTFGGGTKLEIK
notes: murine IgG2a, kappa
B9: the binding result in assay [4] is recorded as “binds”.

B10: 5G4 reacted with B10 (antibody, V domains shown)
VH: DVQLQESGPGLVKPSQSLSLTCTVTGYSITSDYVWNWIRQFPGNKLEWMAYISYSGTTSYNPSLSSRISITRDTSSNQFFLQLNSVTSEDTATYYCARGLDYWGQGTSVTVSS
VL: QIVLTQSPAIMSVSLGERVTMTCTASSSVTSSYFHWYQQKPGSSPKLWIYSTSNLASGVPARFSGSGSGTSYSLTISSMEAEDAATYYCHQYHRSPRTFGGGTKLEIK
modifications: B10 on lysine amines, positions not given; B10 (isothiocyantophenethyl-ureido-closo-decaborate(2-)) on lysine amines, positions not given
notes: also called B10-conjugated 5G4
Regarding B10, in assay [3], the binding result is reported as “binds”.

B11: 1H8 reacted with B10 (antibody, V domains shown)
VH: EVKLVESEGGLVQPGSSMKLSCTASGFTFSDYYMAWVRQVPEKGLEWVANIDDEGSSTYYLDSLKSRFIISRDNAKNILYLQMTSLKSEDTATYYCARGTTQTSFFVHWGQGTLVTVSA
VL: DIVLTQSPASLAVSLGQRATISCRASQSVSSSSYSFMHWYQKKPRQPPKLLIKYASTLEAGVPARFSGSGSGTDFTLNIHPVEEEDTATYYCQHSWEIPYTFGGGTKLEIK
modifications: B10 on lysine amines, positions not given; B10 (isothiocyantophenethyl-ureido-closo-decaborate(2-)) on lysine amines, positions not given
notes: also called B10-conjugated 1H8
With B11, the binding result in assay [3] is reported as “binds”.

B12: 123-ATX1B2 (Human anti-CD123 antibody from ATX-GX mouse, Kappa Light Chain) (antibody, V domains shown)
VH: QVQLVQSGAEVKKPGASVEVSCKASGYTFTGYYIHWVRQAPGQGLEWMGWINPNSGGTNYAQKFQGRVTMTWDTSISTAFMELSRLRSDDTAVYSCARDRGGPYFDYWGQGTLVIVSS
VL: DIQMTQSPSSLSASVGDRVTITCQASQDITNYLNWYQQKPGKAPKLQIYDASNLETGVPSRFSGSGSGTDFTFTISSLQPEDIATYYCQQHDDLPLTFGGGTKVEIK
For B12, in assay [2], the binding result is “binds”.

B13: 123-ATX1E3, fully human recombinant antibody, human IgG1 framework (antibody)
heavy: not shown
light: EIVLMQSPGTLSLSPGERVTLSCRASQTFSSSYLAWYQQKPGQAPRLLIYGASSRATGIPDRFSGSGSGTDFTLTINRLEPEDFAVYYCQQYGRSPFTFGPGTKLDIKRTVAAPSVFIFPPSDEQLKSGTASVVCLLNNFYPREAKVQWKVDNALQSGNSQESVTEQDSKDSTYSLSSTLTLSKADYEKHKVYACEVTHQGLSSPVTKSFNRGEC
notes: also called 1E3 (human IgG1)
In assay [5], B13 showed a Kd of 0.652 nM, a dissociation rate constant (koff) of 6.15e-05 s⁻¹ and a kon of 94400 M⁻¹ s⁻¹.

B14: 123-ATX1E3, fully human recombinant antibody, human IgG4 framework (antibody)
heavy: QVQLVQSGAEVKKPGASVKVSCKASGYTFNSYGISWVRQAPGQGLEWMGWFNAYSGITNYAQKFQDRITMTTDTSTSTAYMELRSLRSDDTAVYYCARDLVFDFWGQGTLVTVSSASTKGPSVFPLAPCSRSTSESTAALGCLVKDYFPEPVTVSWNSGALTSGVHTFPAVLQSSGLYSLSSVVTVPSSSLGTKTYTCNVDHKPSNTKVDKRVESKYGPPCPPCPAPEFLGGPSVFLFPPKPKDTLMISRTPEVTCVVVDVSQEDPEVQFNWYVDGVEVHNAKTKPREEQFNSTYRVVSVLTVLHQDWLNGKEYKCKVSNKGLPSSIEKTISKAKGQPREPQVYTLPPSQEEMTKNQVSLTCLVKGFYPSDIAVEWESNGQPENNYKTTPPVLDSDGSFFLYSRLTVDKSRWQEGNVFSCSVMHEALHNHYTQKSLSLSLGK
light: EIVLMQSPGTLSLSPGERVTLSCRASQTFSSSYLAWYQQKPGQAPRLLIYGASSRATGIPDRFSGSGSGTDFTLTINRLEPEDFAVYYCQQYGRSPFTFGPGTKLDIKRTVAAPSVFIFPPSDEQLKSGTASVVCLLNNFYPREAKVQWKVDNALQSGNSQESVTEQDSKDSTYSLSSTLTLSKADYEKHKVYACEVTHQGLSSPVTKSFNRGEC
notes: also called 1E3 (human IgG4)
In the case of B14, in assay [5], the Kd worked out at 0.792 nM, the koff was determined as 7.02e-05 s⁻¹ and the kon was 88600 M⁻¹ s⁻¹.

B15: 123-ATX1D9, fully human recombinant antibody, human IgG1 framework (antibody)
heavy: not shown
light: QSALTQPPSASGSPGQSVTISCTGTSSDVGGYNYVSWYQQHPGKAPKIMIYEVNKRPAGVPDRFSGSKSGNTASLTVSGLQAEDEAHYYCNSYTDSNNLIFGGGTKLTVLGQPKANPTVTLFPPSSEELQANKATLVCLISDFYPGAVTVAWKADGSPVKAGVETTKPSKQSNNKYAASSYLSLTPEQWKSHRSYSCQVTHEGSTVEKTVAPTECS
notes: Lambda light chain; also called 1D9 (human IgG1)
In assay [5], B15 showed a dissociation constant Kd of 0.563 nM, a koff of 3.68e-05 s⁻¹ and an on-rate constant (kon) of 65500 M⁻¹ s⁻¹.

B16: 123-ATX1D9, fully human recombinant antibody, human IgG4 framework (antibody)
heavy: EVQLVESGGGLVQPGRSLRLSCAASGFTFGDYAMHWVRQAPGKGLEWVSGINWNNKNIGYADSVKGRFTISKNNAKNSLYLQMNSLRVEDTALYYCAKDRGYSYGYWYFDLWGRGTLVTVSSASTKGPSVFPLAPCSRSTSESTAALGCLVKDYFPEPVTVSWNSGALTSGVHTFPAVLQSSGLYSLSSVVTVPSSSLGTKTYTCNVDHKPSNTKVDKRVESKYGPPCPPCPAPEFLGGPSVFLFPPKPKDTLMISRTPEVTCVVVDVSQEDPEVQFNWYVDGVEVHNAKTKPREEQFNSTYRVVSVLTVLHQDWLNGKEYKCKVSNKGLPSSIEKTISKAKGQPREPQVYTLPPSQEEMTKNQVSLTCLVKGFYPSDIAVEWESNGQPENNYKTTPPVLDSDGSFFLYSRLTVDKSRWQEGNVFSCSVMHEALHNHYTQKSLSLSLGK
light: QSALTQPPSASGSPGQSVTISCTGTSSDVGGYNYVSWYQQHPGKAPKIMIYEVNKRPAGVPDRFSGSKSGNTASLTVSGLQAEDEAHYYCNSYTDSNNLIFGGGTKLTVLGQPKANPTVTLFPPSSEELQANKATLVCLISDFYPGAVTVAWKADGSPVKAGVETTKPSKQSNNKYAASSYLSLTPEQWKSHRSYSCQVTHEGSTVEKTVAPTECS
notes: Lambda light chain; also called 1D9 (human IgG4)
In assay [5], B16 showed a Kd of 0.594 nM, a koff of 4.19e-05 s⁻¹ and a kon of 70600 M⁻¹ s⁻¹.

Values taken from patent US20230295316A1 (FRED HUTCHINSON CANCER CENTER, published 2023).
